This assay deals with T1, HLA-A2402 (human, UniProt P04439-2 25-302 at identity 0.92)).
T1 MHC heavy: not shown
Description: cell-based or functional assay.

From US20020128201A1 (GREEN PEPTIDE, published 2002) come the findings set out here.

As for HYTNASDGL [Lck208-216], the “lowest peptide concentration at which enhancement of IFN-γ production by KE4-CTLs was detected (peptide-pulsed ClR/A2402 cells)” value was at least 100 nM. Regarding DYLRSVLEDF [Lck488-497], the “lowest peptide concentration at which enhancement of IFN-γ production by KE4-CTLs was detected (peptide-pulsed ClR/A2402 cells)” value is around 1 nM. The same measure for TFDYLRSVL [Lck486-494]: around 1 nM.
